Here are results for one molecule from US6479459 (IMMUNEX, dated 2002).

For the assay, the target named is T1, soluble elk/Fc fusion protein (rat elk extracellular domain fused to human IgG1 Fc) (rat; human, UniProt P09759 18-540; P01857 99-330 = IgG part, limits assumed).
T1 construct: extracellular domain;domain: Fc region; Expressed transiently in mammalian host cells and purified on protein A sepharose
The assay is described as follows: Scatchard analysis; elk/Fc at various concentrations on CV1-EBNA-1 cells expressing LERK-5, detected with 125I-mouse anti-human IgG. The protocol: CV1-EBNA-1 cells in 10 cm² dishes were transfected with the recombinant expression vector containing LERK-5 DNA. The CV-1/EBNA-1 cell line (ATCC CRL 10478) constitutively expresses EBV nuclear antigen-1 driven from the CMV immediate-early enhancer/promoter. CV1-EBNA-1 was derived from the African Green Monkey kidney cell line CV-1 (ATCC CCL 70), as described by McMahan et al. (*EMBO J*. 10:2821, 1991).
The transfected cells were cultured for 24 hours, and the cells in each dish then were split into a 24-well plate. After culturing an additional 48 hours, a binding assay was conducted by the following procedure. The transfected cells (about 4×10^4 cells/well) were washed with BM-NFDM, which is binding medium (RPMI 1640 containing 25 mg/ml bovine serum albumin, 2 mg/ml sodium azide, 20 mM Hepes pH 7.2) to which 50 mg/ml nonfat dry milk has been added. The cells then were incubated for 1 hour at 37° C. with various concentrations of the elk/Fc fusion protein prepared in Example 2 or the hek/Fc fusion protein prepared in Example 3. Cells then were washed and incubated with a constant saturating concentration of a ^125I-mouse anti-human IgG in binding medium, with gentle agitation for 1 hour at 37° C. After extensive washing, cells were released via trypsinization. […]

T1 sequence (P09759 other isoform, or with tags, fused parts or gaps limits assumed): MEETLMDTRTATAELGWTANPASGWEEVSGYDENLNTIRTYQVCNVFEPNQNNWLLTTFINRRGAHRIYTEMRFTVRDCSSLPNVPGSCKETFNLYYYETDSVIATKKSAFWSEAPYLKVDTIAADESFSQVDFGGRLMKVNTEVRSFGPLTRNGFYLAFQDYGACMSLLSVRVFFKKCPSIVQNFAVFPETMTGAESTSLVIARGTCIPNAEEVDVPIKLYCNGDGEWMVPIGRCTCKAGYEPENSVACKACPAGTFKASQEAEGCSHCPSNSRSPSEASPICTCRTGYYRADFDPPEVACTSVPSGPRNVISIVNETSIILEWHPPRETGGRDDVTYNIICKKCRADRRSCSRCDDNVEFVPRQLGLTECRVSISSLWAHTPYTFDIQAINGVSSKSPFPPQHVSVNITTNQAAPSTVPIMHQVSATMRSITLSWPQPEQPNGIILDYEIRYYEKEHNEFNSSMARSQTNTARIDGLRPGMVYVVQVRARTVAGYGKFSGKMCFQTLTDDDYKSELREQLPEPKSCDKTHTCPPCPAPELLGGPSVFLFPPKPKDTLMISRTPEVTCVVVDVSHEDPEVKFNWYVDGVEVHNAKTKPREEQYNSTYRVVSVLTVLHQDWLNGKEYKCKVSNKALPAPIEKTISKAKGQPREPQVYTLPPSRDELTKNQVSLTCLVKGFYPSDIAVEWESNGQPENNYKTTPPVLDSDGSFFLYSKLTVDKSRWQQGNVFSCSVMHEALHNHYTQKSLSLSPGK

B1: human LERK-5 (recombinant, full length, expressed on the surface of transfected CV1-EBNA-1 cells) (ligand)
chain: KSIVLEPIYWNSSNSKFLPGQGLVLYPQIGDKLDIICPKVDSKTVGQYEYYKVYMVDKDQADRCTIKKENTPLLNCAKPDQDIKFTIKFQEFSPNLWGLEFQKNKDYYIISTSNGSLEGLDNQEGGVCQTRAMKILMKVGQDASSAGSTRNKDPTRRPELEAGTNGRSSTTSPFVKPNPGSSTDGNSAGHSGNNILGSEVALFAGIASGCIIFIVIIITLVVLLLKYRRRHRKHSPQHTTTLSLSTLATPKRSGNNNGSEPSDIIIPLRTADSVFCPHYEKVSGDYGHPVYIVQEMPPQSPANIYYKV
notes: The whole coding region of clone λ6 was expressed from pDC410 in CV1-EBNA-1 cells; also called clone λ6 protein
For the molecule B1, the Ka turned out to be 1.05e+09 M⁻¹.
